Changes are numbered by the printed parent chain.
B1: Ab_17 scFv-Fc (scFv, V domains shown)
VH: QVQLVQSGGGVVQPGRSLRLSCAASGFTFDDYAMHWVRQVPGKGLEWVSGIDWNSGVIGYADSVKGRFTISRDNVKNSLYLQMNSLRTEDSALYYCAKDIGPGGSGSYYAFDIWGQGTTVTVSS
VL: QSALTQPASVSGSPGQSITISCTGTSSDVGGSKYVSWYQQHPGKAPKVMIYDVTKRPSGVPDRFSGSKSGNTASLTISGLQAEDEADYYCAAWDDSLNGVVFGGGTKLTVL
B2: Ab_18 scFv-Fc (scFv, V domains shown)
VH: EVQLVQSGGGVVQPGRSLRVSCAASGFSFSRYGMHWVRQAPGKGLEWVAFIRHDGSKKYYADSVEGRFTISRDNSRNTVSLEMNSLRGEDTAVYYCAKDGRLEAALDDWGQGTLVTVSS
VL: NFMLTQPHSMSGSAGKTVTVSCIRSSGSIANNFVQWYQQRPGSAPTTVIYEDNQRPSGVPDRFSGSIDSSSNSASLTISGLKTEDEADYYCQSYDSSNLVFGGGTRLTVL
B3: Ab_21 scFv-Fc (scFv, V domains shown)
VH: QVQLVQSGGGLVQPGGSLRLSCATSGFTFDDYAMHWVRQAPGKGLEWVSGISWNSGSIGYVDSVKGRFTISRDNRNNKVYLQMNNLRAEDTAVYYCARDWWGSIDHWGLGTLVTVSS
VL: QSALTQPRSVSGSPGQSVTISCTGTSSDVGGYDYVSWYQQHPGKAPKLIIYDVSKRPSGVPDRFSGSKSGNTASLTVSGLQAEDEADYYCSSYTSSSPVVFGGGTKLTVL
B4: Ab_26 scFv-Fc (scFv, V domains shown)
VH: QVQLVQSGGGLVQPGRSLRLSCAASGFTFDDYAMHWVRQVPGKGLEWVSGIDWNSGVIGYADSVKGRFTISRDNAKNSLYLQMNSLRAEDTALYYCAKDAYSYGFLGAFDIWGQGTMVTVSS
VL: LPVLTQPPSVSVAPGQTASITCGGDNIRTKGVHWYQQKPGQAPLLVIYYASDRPSGIPERFSGSSSGNTATLTISRVEAGDEADYYCQVWDSSSDLVVFGGGTTLTVL
B5: Ab_14 scFv-Fc (scFv, V domains shown)
VH: QVQLQQSGPGLVKPSQTLSLTCAISGDSVSSNSAAWNWIRQSPARGLEWLGRTYYRSRWYNDYAISMKSRITINPDTSKNQFSLQLESVTPEDTAVYYCAREIRGFDYWGQGTLVTVSS
VL: QSVLTQPPSASGSPGQSVTISCTGTSSDVGAYNFVSWYQHHPGKAPKLIIYDFNKRPSGVPDRFSGSKSGNTASLTVSGLQADDEADYYCSSYAGSNNFDVVFGGGTKLTVL
B6: Ab_19 scFv-Fc (scFv, V domains shown)
VH: EVQLVESGAEVKKPGESLKISCKGSGYSFTSYWIGWVRQMPGKGLEWMGIIYPGDSDTRYSPSFQGQVTISADKSISTAYLQWSSLKASDTAMYYCARRGDLDAFDIWGQGTMVTVSS
VL: QPGLTQPPAASGTPGQRVTVSCSGASANIGSNAVSWFKQFPETAPRLLISGNTHRPSGVPDRVSGSKSGTSASLTISGLQSDDEADYYCAAWDDSLNGYVFGSGTKVTVL
B7: RBD-R3-E1-A5 Ab (Ab_30) scFv-Fc (scFv, V domains shown)
VH: QVQLVQSGGGVVQPGKSLRLSCTASGFTFSDFPIHWVRQAPGKGLEWVGVISYDGNIKYYGDSVKGRFTISRDNAKNSLYLQMNSLRVEDTAVYYCARGGSSFDIWGQGTTVTVSS
VL: SYELTQPPSVSEAPRQRVTISCSGSTSNIGNNAVSWYQHLPGKAPKLLIYYNERLPSGVSDRFSGSKSGTSASLAISGLRSEDEADYYCAAWDDSLSGHVVFGGGTKLTVL
B8: Ab 38 scFv-Fc (scFv, V domains shown)
VH: QVTLKESGPTLVKPTQTLTLTCTFSGFSLTTSGVSVGWIRQPPGKALEWLALIHWDDDKRYSPSLRSRLTITRDTSKNQVVLTVTDMDPADTGTYYCASFIMTVYAEYFEDWGQGTLVTVSS
VL: EIVLTQSPATLSVSPGERATLSCRASQSVSSNLAWYQQKPGQAPRLLMYDVSTRATGIPARFSGSGSGTEFSLTISSLQSEDFAVYYCQQRGAWPLTFGGGTKVEIK
B9: Ab_27 scFv-Fc (scFv, V domains shown)
VH: QVQLVQSGTEVKKPGASVKVSCKASGYSFTGSHLHWVRQAPGQGLEWMGWINPDSGVINYAQKFQGRVTLTRDTSISTAYMELSGLRSDDTAVYYCARDKAIGYVWALDYWGQGTLVTVSS
VL: QSALTQPPSVSGSPGQSVTISCTGTSSDVGTYNRVSWYQQPPGKAPKLMIYEVSNRPSGVSNRFSGSKSGNTASLTISGLQAEDEADYYCSSYTRTFTYVFGTGTKVTVL
B10: Ab_23 scFv-Fc (scFv, V domains shown)
VH: EVQLVQSGAEVKKPGSSVKVSCRSSGGTFSTYGITWVRQAPGQGLEWMGRIIPSLGIPNYAQKFQGRVTITADTSVSTAWMELSSLESDDTAIYYCARENIDLATNDFWGQGTLVTVSS
VL: QSALTQPPSASGSPGQSVTISCTGTSRDIGAYGYVSWYQQVPGKAPKLIIYEVRNRPSGVSSRFSGSKSGNTASLTISGLQAEDEADYYCSSYTSSSTLDVVFGGGTKLTVL
B11: Ab_16 scFv-Fc (scFv, V domains shown)
VH: QVQLVQSGGGVVQPGRSLRLSCAASGFTFSNYGMHWVRQAPGKGLEWVALIWERGSKKDYADSVKGRFTVSRDNSKNTLYLQMNSLRPEDTAVYFCAREGISMTGAEYFQHWGQGTLVTVSS
VL: QSVLTQPPSVSGSPGQRVTMSCTGSSSNIGAGYDVHWYQQVPGAAPRLLIYGTNNRPSGVPDRFSGSKSGTSASLTITGLQAEDEADYYCQSYDNSLTDPYVFGTGTKVTVL
B12: S1-R3-T1-C4 (Ab_8) scFv-Fc (scFv, V domains shown)
VH: QVQLVQSGAEVKKPGSSVKVSCKASGGTFSSYAISWLRQAPGQGLEWMGWINPNSGGTNYAQKFQGRVTMTRDTSISTAYMELSRLRSDDTAVYYCARGSGGYYLGWGQGTLVTVSS
VL: QPGLTQPPSVSKGLRQTATLTCTGNSNNVGNQGAAWLQQHQGHPPKLLSYMNNNRPPGISERFSASRSGNTASLTITGLQPEDEADYYCSAWDSSLSRWVFGGGTKLSVL
B13: S1-RBD-R3-T1-B12 Ab (Ab_31) scFv-Fc (scFv, V domains shown)
VH: QVQLVQSGAEVKKPGSSVKVSCKASGGTFSSYTISWVRQAPGQGLEWMGGIIPILGTPNYAQKFQDRVAITADKSTSTAYMELSSLRSEDTAVYYCAVGSGWYSGFDYWGQGTLVTVSS
VL: NFMLTQPHSVSESPGKTVTISCTGSSGSIASNYVQWYQQRPGSAPTTVIYEDSQRPSGVPDRFSGSIDSSSNSASLTISGLKTEDEADYYCQSFHNSNPVIFGGGTKLTVL
B14: RBD-R3-E1-B3 Ab (Ab_32) scFv-Fc (scFv, V domains shown)
VH: QVQLVQSGAEVKKPGESLKISCKGSGYSFTSYWIGWVRQMPGKGLEWMGIIYPGDSDTRYSPSFQGQVTISADKSISTAYLQWSSLKASDTAMYYCARGWQWHDYWGQGTLVTVSS
VL: QTVVTQEPAVSVALGQTVRITCQGDSLRSYYASWYQQKPGQAPVLVVYDKDKRPSGIPDRFSGSTSGNTASLTITGAQAEDEADYYCNSRDRSDNHVVFGGGTKLTVL
B15: Ab2-7 IgG (antibody, V domains shown)
VH: QVTLKESGPTRVKPTQTLTLTCTFSGFSLSTTGVGVGWIRQPPGKALEWLALIYWNDDKRYSPSLKSRLTITKDTSKNQVVLTMTNMDPVDTATYYCARISGSGYFYPFDIWGQGTTVTVSS
VL: NFMLTQPHSVSESPGKTVTISCTRSSGSIASNYVQWYQQRPGSSPTTVIYEDNQRPSGVPDRFSGSIDSSSNSASLTISGLKAEDEADYYCQSYDSSSLWVFGGGTKLTVL
B16: Ab_13 scFv-Fc (scFv, V domains shown)
VH: B15 VH with T10K, R11L, T32S, N56D, T72A, N78Y, T117M, S122A
VL: B15 VL with S44A, A83T, S98N
B17: Ab_28 scFv-Fc (scFv, V domains shown)
VH: QVTLKESGPGLVNPSETLSLTCTVSGASISNSFWSWIRQSPGKGLEWIGYTSYSGNSIYNPSLKSRLTMSIDTSKNQLSLNLRSLTAADTAVYYCARREWIKGHFDYWGQGTLVTVSS
VL: B13 VL with S26G, S53N, F94Y, H95D, N96S, I101V
B18: S1-RBD-R3-T1-F5 (Ab2-7) scFv-Fc (scFv, V domains shown)
VH: B15 VH
VL: B15 VL
B19: S1-RBD-R3-T1-C7 Ab (Ab_29) scFv-Fc (scFv, V domains shown)
VH: QVQLQQSGPGLVKPSQTLSLTCAISGDSVSSYSDAWNWIRQSPSRGLEWLGRTYYRSKWYNDYAVSVKSRITINPDTSKNQFSLQLSSVTPEDTAVYYCAREIVATTPFRNYYYGMDVWGQGTTVTVSS
VL: B15 VL with K16N, S25T, Y50F, E51Q, N53K, Q54L, A83T
B20: Ab_20 scFv-Fc (scFv, V domains shown)
VH: QVQLVQSGGGSVKPGGSLRLSCAASGYRLSDYYMHWVRQAPGKGLEWVANIKQDGSEKYYVDSVKGRFTISRDNAKNSLYLQMNSLRAEDTAVYYCARVRGWSRGYFDYWGQGTLVTVSS
VL: B15 VL with R24G, S44A, T77L, A83T, S98N, L99H
B21: Ab_25 scFv-Fc (scFv, V domains shown)
VH: QVQLVQSGGGLVQPGGSLRLSCAASGFTFSSYWMSWVRQAPGKGLEWVANIKQDGSEKYYVDSVKGRFTISRDNAKNSLYLQMNSLRAEDTAVYYCARGFYYYGAFDIWGQGTTVTVSS
VL: B15 VL with R24G, S44A, D68G, A83T, S98N, L99H

Legend:
[1] = target: WT Spike (SARS-CoV2)
[2] = target: WT Spike (SARS-CoV-2 spike protein) (SARS-CoV-2)
[3] = target: SARS-CoV-2 receptor binding domain (RBD), recombinant, biotinylated (SARS-CoV-2)
[4] = target: SARS-CoV-2 spike protein on stably transduced 293T cells (SARS-CoV-2); assay: FACS binding curve, percent of cells labeled

| Binder | Kd [1] | Response [1] | further results |
| --- | --- | --- | --- |
| B1 | 6.35 pM | 0.248 |  |
| B2 | 9.07 pM | 0.216 |  |
| B3 | 9.25 pM | 0.147 |  |
| B4 | 11 pM | 0.185 |  |
| B5 | 8.22 pM | 0.313 |  |
| B6 | 8.9 pM | 0.121 |  |
| B7 | 1.02 pM | 0.107 |  |
| B8 |  |  | Kd [2]: 7.86 pM; Response [2]: 0.274 |
| B9 | 8.78 pM | 0.202 |  |
| B10 | 8.84 pM | 0.0845 |  |
| B11 | 11.8 pM | 0.346 |  |
| B12 | 7.15 pM | 0.118 |  |
| B13 | < 1 pM | 0.101 |  |
| B14 | 6.32 pM | 0.131 |  |
| B15 |  |  | Kd [3]: 268 pM; koff [3]: 3.93e-05 s⁻¹; kon [3]: 147000 M⁻¹ s⁻¹; fold shift of the FACS binding curve to the right, IgG against scFv-Fc [4]: 10 fold |
| B16 | 8.55 pM | 0.0732 |  |
| B17 | 8.9 pM | 0.132 |  |
| B18 | 7.85 pM | 0.0672 |  |
| B19 | 149 pM | 0.126 |  |
| B20 | 9.01 pM | 0.0985 |  |
| B21 | 8.9 pM | 0.0219 |  |

Reference: US20240409617A1
